Source: patent publication US20120269822A1 (published 2012)

B1: Aa9 VHH (VHH)
VHH: QVQLVESGGGMVQPGGSLRLSCKGSGSVFMFYDMGWYRQAPGNQRELVAVMGPGGNTNYADAVKGRFTVARNIDEDTVSLLMTNLEPEDTAVYYCAADFDTPWGASGRYDYWGQGTQVTVSS
B2: A26 VHH (VHH)
VHH: DVQLVESGGGLVQPGGSLRLSCVVSGLTSTEYAIGWFRQAPGKEREGVACLVVSGHNSGRTHYSAAVKGRFTVSQDDATNTAILHMDNLQPKDTAVYYCAAEVSSGQPAVTTFWEDMYDYWGQGTQVTVSS
B3: Aa8 VHH (VHH)
VHH: AVQLVESGGGLVQAGDSLRLSCTLSGGTFRHYAMSWFRQAPGKERVFVARIDYDGAMKYYADSVKGRFTISRDNAKNTMYLQMNSLKPEDTAVYYCNAHWDYGLGPEWDYWGQGTLVTVSS
B4: A21 VHH (VHH)
VHH: QVQLVESGGGVVQAGGSLRLSCVASGFTIDDYPVAWFRQAPGKEREAVSCIGNRGGTTYYADSVKGRFSISRDDAKDTVYLQMNNLKSEDTAVYYCVKDLGSVGPGAEYDYWGQGTLVTVSS
B5: Aa1 VHH (VHH)
VHH: AVQLVDSGGGTLQAGKSLRLSCAISGLAFDGGAMGSEHRLTAGAMGWFRQAPGKDREFVAAISPRTDETYYAESLEGRFSVSRDAAATMVFLEADNVRLDDTASYYCAADEDVTPRVMGVIPHADHWGQGTLVTVSS
B6: Aa11 VHH (VHH)
VHH: QVQLVESGGGLVQAGGSLRLSCAASGRTFSSYAMGWFRQAPGKEREFVAAISWSGGSTYYADSVKGRFTISRDDARNTVTLLMNSLKPEDTAVYFCNAWSLEEQYWGQGTQVTVSS
B7: Aa6 VHH (VHH)
VHH: AVQLVESGGGLVASGGSLRLSCAASDFKFSDYWMHWIRQAPGKEREFVASIGWNGEITDYEESIEGRFAISRDNNKYTLYLEMRDLIPEDTGLYYCAASSDYRWSRQPFEFENWGQGTQVTVSS
B8: A23 VHH (VHH)
VHH: AVQLVESGGGAVSPGGSLKLSCTASGLAFNGGAMGSEHRLTAGAMGWFRQAPGKDREFVAAIHPRTNDTYYSGTLEDRFTISIDDAKMTVYLQADSLRLEDTAVYSCAADEDVTPRGMGVIPYAEYWGQGTQVTVSS
B9: A19 VHH (VHH)
VHH: EVQLVESGGGLVQPGGSLRLSCAASGFTFSGSAMSWVRQTPGKGLEWVSFISRSGSVTEYADSVKGRFTIARDNAPNTVYLQMNSLKPEDTAVYYCTADSYVDYEDDRLKWHHSWGQGTQVTVSS

What was measured:
[1] = molecular target: T1, BoNT/A Lc448, truncated botulinum neurotoxin serotype A light chain containing residues 1-448 (Clostridium botulinum, UniProt P0DPI0 1-448); assay: flow cytometry, yeast-displayed VHH titrated with soluble BoNT/A Lc448
T1 construct: range 1-448

[2] = molecular target: T1, BoNT/A Lc448, truncated botulinum …; assay: KinExA; calculated as KD × kon
[3] = molecular target: T1, BoNT/A Lc448, truncated botulinum …; assay: KinExA flow fluorimetry, solution kinetics, purified Aa1 VHH and BoNT/A Lc448
[4] = molecular target: T1, BoNT/A Lc448, truncated botulinum …; assay: KinExA flow fluorimetry, solution equilibrium, purified Aa1 VHH and BoNT/A Lc448
[5] = molecular target: T1, BoNT/A Lc448, truncated botulinum …

T1 sequence (P0DPI0 1-448 limits assumed): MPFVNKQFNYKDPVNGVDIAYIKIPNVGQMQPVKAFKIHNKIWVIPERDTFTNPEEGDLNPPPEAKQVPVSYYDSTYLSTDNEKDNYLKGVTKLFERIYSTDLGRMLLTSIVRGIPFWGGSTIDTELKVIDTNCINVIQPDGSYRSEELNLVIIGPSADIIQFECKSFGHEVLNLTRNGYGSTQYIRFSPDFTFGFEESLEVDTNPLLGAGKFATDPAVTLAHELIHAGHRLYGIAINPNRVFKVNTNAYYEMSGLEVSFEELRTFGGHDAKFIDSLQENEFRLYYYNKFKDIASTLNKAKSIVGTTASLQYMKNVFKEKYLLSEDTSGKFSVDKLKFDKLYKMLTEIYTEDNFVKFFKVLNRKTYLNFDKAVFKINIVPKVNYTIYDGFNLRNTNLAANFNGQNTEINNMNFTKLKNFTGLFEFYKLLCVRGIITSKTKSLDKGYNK

Binder | Kd [1] [nM] | further results
B1 | 4.08 | 
B2 | 8.7 | 
B3 | 112 | 
B4 | 60.7 | 
B5 | 0.03 | koff [2]: 0.00666 s⁻¹; kon [3]: 4.39e+07 M⁻¹ s⁻¹; Kd [4]: 0.147 nM; IC50 (read off the curve) [5]: ~0.1 nM
B6 | 76.1 | 
B7 | 0.52 | 
B8 | 16.9 | 
B9 | 4.65 | 
